Measurements reported in US11976099B2, “Compositions and methods for treatment of bone associated diseases” (THE NATIONAL INSTITUTE FOR BIOTECHNOLOGY IN THE NEGEV LTD., priority 2016, dated 2024).
Positions count from the first letter of the chain named. In names and notes the source's numbering stands.

B1: M-CSFM: 158 amino acid M-CSF with cysteine at position 31 replaced by serine (SEQ ID NO: 2) (protein)
chain: EEVSEYCSHMIGSGHLQSLQRLIDSQMETSSQITFEFVDQEQLKDPVCYLKKAFLLVQDIMEDTMRFRDNTPNAIAIVQLQELSLRLKSCFTKDYEEHDKACVRTFYETPLQLLEKVKNVFNETKNLLDKDWNIFSKNCNNSFAECSSQGHERQSEGS
B2: M-CSFWT: wild-type human M-CSF, disulfide-bond-linked homodimer which binds and activates c-FMS (protein)
chain: B1 chain with S31C
B3: M-CSFC31S,M27R: M-CSF double mutant containing both C31S and M27R; monomeric, monospecific c-FMS antagonist (protein)
chain: B1 chain with M27R

How the values were obtained:
[1] = test system: murine bone marrow derived monocytes (BMMs) differentiating to osteoclasts; test: Osteoclast differentiation assay of murine BMMs (TRAP staining); format: cell-based, mouse; conditions: for effect on osteoclast differentiation/formation: Example 9, FIG. 13, varying concentrations, five days; for number of osteoclasts and number of nuclei / osteoclast formation: Example 14; for osteoclast formation: 50, 1000 and 5000 nM with M-CSFWT and RANKL
Protocol: Primary cells differentiation assay—Murine primary cells were obtained as described in the murine primary cells section. Cells were washed with PBS and detached using a cell scraper, and 20,000 cells were plated in each well of a 96-well plate. Osteoclast differentiation was induced by culturing the cells in α-MEM containing 10% of fetal bovine serum (FBS), penicillin and streptomycin, […] M-CSF and 20 ng/ul RANKL (R&D Systems, USA). To determine the influence of the M-CSFRGD variants and the M-CSFM on the osteoclasts, the proteins were added to the differentiation medium (with M-CSF and RANKL) in three different concentrations (50 nM, 1 μM and 5 μM). After 72-96 h, once the cells had differentiated fully, they were fixated with 4% paraformaldehyde and stained using the tartrate-resistant acid phosphatase (TRAP) staining kit (Sigma-Aldrich, USA) according to manufacturer's protocol. As a positive control, PBS was used instead of the inhibitors, and negative controls comprised cells incubated in differentiation medium without RANKL and inhibitors. […] Cells in each image were counted in a double-blind manner and the number of nuclei in the osteoclasts and the total osteoclast surface area were determined using ImageJ software. Three repeats were performed for every condition, and each repeat was normalized to the positive control values.
Differentiation assay—BMMs and CD14+ cells were obtained and grown as described above. The plates containing the monocytes were washed with PBS; the cells were detached using a cell scraper for BMMs or Accutase (Biological industries, Israel) for CD14^+; and 2×10^4 BMMs or 1×10^4 CD14^+ cells were transferred to each well in a 96-well plate. Osteoclast differentiation was induced as described in the ‘phosphorylation assay’ section. To determine the influence of M-CSFC31S and the M-CSFC31S,M27R on osteoclast differentiation, the proteins were added to the differentiation medium (with M-CSF and RANKL) in different concentrations (50 nM, 1 μM and 5 μM for BMMs and 50 nM, 250 nM and 1 μM for CD14^+). To determine the influence of human M-CSFWT on the differentiation, it was added to the cells in different concentrations (50 nM 1 μM and 5 μM) without adding murine M-CSFWT. Once the cells were fully differentiated, they were fixed with 4% paraformaldehyde and stained using the tartrate-resistant acid phosphatase (TRAP) staining kit (Sigma-Aldrich, USA) according to the manufacturer's protocol. As the positive control, cells were incubated with M-CSF and RANKL without inhibitors, and the negative control was comprised of cells that were incubated in differentiation medium without RANKL. […] Cells in each image were counted in a double-blind manner, and the number of nuclei in the osteoclasts was determined using ImageJ software. For the positive control of BMMs, an average of 28.33 osteoclasts and 135 nuclei per well were counted. For CD14^+ positive control, the average numbers of osteoclasts and nuclei were 14.5 and 75, respectively, per well. The results for each parameter were normalized to the positive control values.
Murine bone marrow monocytes were purified from the bone marrow of eight- to twelve-week-old mice and were seeded for osteoclast differentiation in the presence of recombinant M-CSF and RANKL for 72-96 h. […] At the end of the differentiation period, osteoclasts were fixed and stained for Tartrate resistant acid phosphatase activity (TRAP). Osteoclast differentiation and spreading were evaluated in terms of three parameters: number of osteoclasts, number of nuclei in osteoclasts and osteoclast surface area.
The positive control contains a differentiation medium with both M-CSF WT and RANKL. The negative control contains only […], which keeps the cells alive though not differentiated. Varying concentrations of M-CSFM and M-CSFM,M27R were added to the cells, that were grown for five days. Then the cells were fixated and stained using TRAP staining for differentiated osteoclasts. […]

[2] = Small angle X-ray scattering (SAXS) analysis; format: physicochemical; conditions: 3, 5 and 7 mg/ml
Protocol: The scattering intensity was recorded in the interval 0.012<q<0.7 Å−1. The measurements were performed under vacuum at 25° C. All three M-CSF variants were measured at concentrations of 3, 5 and 7 mg/ml. The scattering of the buffer was also measured and subtracted from the scattering of the samples. The magnitude of the scattering vector is described by the following equation: […]
Values for the radius of gyration (Rg) were derived from the small angle part of the SAXS profile (Guinier region, qRg<1.0), in PRIMUS [43]. In this region, Guinier approximation is applicable:
Rg values were also derived using in-house scripts designed to perform an automatic search for the best fitting parameters using GNOM (Svergun, D. I. (1992). J. Appl. Crystallogr. 25, 495-503). CRYSOL ([…] and Koch, M. H. J. (1995) J. Appl. Crystallogr. 28, 768-773) was used to compute the theoretical SAXS spectra based on the M-CSFWT crystal structure (PDB ID code: 3UF2). These spectra served as a reference for reconstruction of the experimental SAXS data. GASBOR (Svergun, D. I., Petoukhov, M. V. and Koch, M. H. J. (2001) Biophys. J. 80, 2946-2953) was used to reconstruct the molecular envelope based on the best GNOM fit obtained from the in-house script. Ten models were calculated for each sample and averaged using DAMAVER (Volkov, V. V. and Svergun, D. I. (2003) J. Appl. Crystallogr. 36, 860-864).
Next, the size of the M-CSF variants was evaluated in solution. M-CSFWT, M-CSFC31S and M-CSFC31S,M27R at concentrations of 0.5 mg/ml were subjected to dynamic light scattering (DLS) analysis at an angle of 90°. The peaks for the most abundant species in each sample were compared (FIG. 16B), and an estimated hydrodynamic radius was calculated from each peak. […] To confirm that the oligomeric state of M-CSFC31S,M27R is not concentration dependent, all M-CSF variants were subjected to SAXS measurements at concentrations of 3, 5 and 7 mg/ml. Of note is that the Rg values remained within a similar range for M-CSFWT and M-CSFC31S. […]

| Molecule | number of osteoclasts and nuclei at 5000 nM ([1]; BMMs, 5000 nM) | effect on osteoclast differentiation ([1]; Example 8, 50 nM, 1 μM and 5 μM with M-CSF and RANKL, 72-96 h) | effect on osteoclast differentiation/formation [1] | number of osteoclasts and number of nuclei ([1]; BMMs) | osteoclast formation ([1]; BMMs) | oligomeric state in solution [2] | numbers of osteoclasts and their nuclei ([1]; BMMs, 50, 1000 and 5000 nM without murine M-CSFWT) |
| --- | --- | --- | --- | --- | --- | --- | --- |
| B1 | reduction in both osteoclasts and nuclei number | markedly enhanced osteoclast differentiation | acts as an inducer for osteoclast differentiation | the opposite result | highly accelerated in the two lower concentrations | exist as dimers in solution | – |
| B2 | – | – | – | – | – | exist as dimers in solution | inhibits both the numbers of osteoclasts and their nuclei, in a dose dependent manner |
| B3 | – | – | inhibits osteoclast formation in a dose dependent manner | a decrease in both parameters, in a dose-dependent manner | significantly inhibited, in a dose-dependent manner | is a monomer | – |
